The numbers were not newly measured in publication PMC3859915, which cites them from elsewhere.

The data set concerns the target IL-15 (Mus musculus) (UniProt P48346).
Chain of UniProt P48346 (P48346 49-162): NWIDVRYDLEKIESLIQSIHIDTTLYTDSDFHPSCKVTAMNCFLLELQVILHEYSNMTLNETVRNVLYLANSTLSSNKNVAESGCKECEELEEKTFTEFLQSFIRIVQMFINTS

For the substance IL-15Rα (from UniProt Q60819), the Kd is 0.014 nM.
